Measurements reported in patent US20170241986A1, “METHODS FOR IDENTIFYING COMPOUNDS THAT ALTER THE ACTIVITY OF IRHOM POLYPEPTIDES AND USE THEREOF” (The Jackson Laboratory, priority 2014, published 2017).

T1: HA-tagged human AREG (amphiregulin) (human) (UniProt P15514)
T1 sequence (looked up): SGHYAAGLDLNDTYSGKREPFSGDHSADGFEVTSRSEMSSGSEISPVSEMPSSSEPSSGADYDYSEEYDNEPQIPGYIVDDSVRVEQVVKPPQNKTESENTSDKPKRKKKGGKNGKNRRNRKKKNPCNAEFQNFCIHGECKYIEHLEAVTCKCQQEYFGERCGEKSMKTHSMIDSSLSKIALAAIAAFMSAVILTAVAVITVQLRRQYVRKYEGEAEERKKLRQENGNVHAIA


Tests used:
[1] = target: T1, HA-tagged human AREG (amphiregulin) (human); assay: cell-based or functional assay
[2] = test system: AREG; assay: Immunoblot of intracellular pro-AREG in co-transfected cells; format: cell-based, human; settings: co-expression with AREG, DMSO or 10 μM MM
Experimental: SDS-PAGE and Immunoblotting: Cells were washed once with ice cold PBS and incubated with RIPA buffer (Cell Signaling, Danvers, Mass.) containing complete mini protease inhibitors (Roche Applied Science, Indianapolis, Ind.) on ice for 10 min. Cell lysate was centrifuged at 14,000 g for 10 min at 4° C. Supernatant was collected and stored at −80° C. until further use. Total amount of protein was quantified using a Qubit Fluorometer (Life technologies), and 10 μg of protein was loaded onto 4-12% pre-cast gels (Lonza, Allendale, N.J.) and run at 140V until the low molecular weight Precision plus protein standard (Bio-Rad) reached the bottom of the gel. Resolved proteins were electrophoretically transferred onto PVDF membranes using an iBLOT (Life technologies) before blocking in 5% BSA (Cell Signaling Technology) in TBST (20 mM Tris, 137 mM sodium chloride, and 0.1% Tween-20) for 1 h at room temperature. Membranes were then incubated overnight at 4° C. in primary antibodies (1:1000) followed by three 15 min washes in TBST and incubation in secondary antibodies (1:2000) for 1 h at room temperature. After another wash in TBST for 90 min, membranes were exposed to SuperSignal West Femto Substrate (Fisher Scientific) for 5 min for detection of horseradish peroxidase generated signal. Membranes were re-probed with actin-specific antibody. […]

[3] = test system: AREG; assay: Co-immunoprecipitation of iRhom2-AREG complex; format: binding, human; settings: COS7 cell lysates, anti-Flag immunoprecipitation
Experimental: Immunoprecipitation: 293T and COS7 cell transfections were carried according to the manufacturer's instructions (Life technologies). Cells plated in 6 well plates were treated with 400 μls of Cell Lysis Buffer (Cell Signaling, Danvers, Mass.) containing complete mini protease inhibitors (Roche Applied Science, Indianapolis, Ind.), incubated on ice for 10 min and centrifuged at 14,000 g for 10 min in a cold room. Cell supernatant was incubated overnight with 20 μls of magnetic beads conjugated with Anti-DDK antibody (Origene) in a cold room on a rocking platform. Following overnight incubation, beads/slurry was washed with three times with TBS-T, and protein was collected using 2×SDS-PAGE loading buffer.

[4] = test system: EGF; assay: ELISA of EGF in conditioned medium of transfected 293T cells; format: cell-based, human; settings: 10 μM marimastat
Experimental: (§1) Human AREG, HB-EGF and EGF ELISA: Transient transfections were performed in 293T cells seeded in 24-well plates. Using lipofectamine LTX with Plus reagent 16.5 fmol of HuWt or HuCub was co-transfected with 25 ng of AREG or 50 ng of HB-EGF or 200 ng of EGF. The total amount of transfected DNA was made up to equal amount per well with pCMV6-AC-HA vector. After 24 h, DMSO or 10 μM MM in 1 ml of fresh medium replaced the old medium. After 24 h, 100 μl of supernatant was either undiluted (HB-EGF and EGF) or diluted five-fold (AREG) and subjected to ELISA as per the manufacturer's instructions (DY262, DY259, and DY236).

[5] = test system: AREG; assay: ELISA of AREG in conditioned medium of transfected 293T cells (in vitro cleavage assay); format: cell-based, human
Description: To test whether Rhbdf2^cub, with its short N-terminal domain, could induce secretion of AREG independently of metalloprotease activity, we performed in vitro cleavage assays in the presence or absence of marimastat (MM), a potent broad-spectrum metalloprotease inhibitor that can block both ADAM17- and ADAM10-dependent shedding of substrates. Because of the significant homology between the mouse and human RHBDF2 genes we transfected 293T cells with human AREG either alone or with the human wildtype (HuWt) or human Cub (HuCub) RHBDF2 genes (FIG. 5A), and measured AREG levels in conditioned medium. In the absence of MM, we observed no difference in AREG levels between AREG-expressing and AREG/HuCub co-expressing cells, whereas co-expression of HuWt and AREG reduced AREG levels by ˜60% (FIG. 5B).
as §1

[6] = test system: HB-EGF; assay: ELISA of HB-EGF in conditioned medium of transfected 293T cells; format: cell-based, human; settings: 10 μM marimastat
Experimental: as §1

[7] = co-expression with AREG, 10 μM marimastat

Row | Molecule | AREG levels after co-transfection [1] [fold] | AREG levels in conditioned medium (ELISA) of co-transfected 293T cells in the presence of marimastat [1] [fold] | intracellular levels of AREG compared with HuWt [2] | physical complex with AREG [3] | secretion of EGF compared with empty vector transfected controls [4] | secretion of AREG compared with empty vector transfected controls ([5]; 293T cells, 10 μM marimastat) | AREG levels versus AREG-expressing cells ([5]; 293T cells, co-expression with AREG, absence of MM) | levels of AREG in conditioned medium compared with HuWt [5, 7] | secretion of HB-EGF compared with empty vector transfected controls [6]
1 | Flag-tagged HuCub (human version of cub cDNA; N-terminal-truncated human iRhom2) (enzyme, not shown: small tags and cut ends) MSSMPDDVFESPPLSASYFRGIPHSASPVSPDGVQIPLKEYGRAPVPGPRRGKRIASKVKHFAFDRKKRHYGLGVVGNWLNRSYRRSISSTVQRQLESFDSHRPYFTYWLTFVHVIITLLVICTYGIAPVGFAQHVTTQLVLRNKGVYESVKYIQQENFWVGPSSIDLIHLGAKFSPCIRKDGQIEQLVLRERDLERDSGCCVQNDHSGCIQTQRKDCSETLATFVKWQDDTGPPMDKSDLGQKRTSGAVCHQDPRTCEEPASSGAHIWPDDITKWPICTEQARSNHTGFLHMDCEIKGRPCCIGTKGSCEITTREYCEFMHGYFHEEATLCSQVHCLDKVCGLLPFLNPEVPDQFYRLWLSLFLHAGVVHCLVSVVFQMTILRDLEKLAGWHRIAIIFILSGITGNLASAIFLPYRAEVGPAGSQFGLLACLFVELFQSWPLLERPWKAFLNLSAIVLFLFICGLLPWIDNIAHIFGFLSGLLLAFAFLPYITFGTSDKYRKRALILVSLLAFAGLFAALVLWLYIYPINWPWIEHLTCFPFTSRFCEKYELDQVLH | 2 to 3 | 2 |  |  |  |  |  |  | 
2 | HuCub: human RHBDF2 construct mimicking the mutant Rhbdf2cub transcript; N-terminal-truncated iRhom2 (protein, left off: small tags and cut ends, human RHBDF2 construct mimicking the mutant Rhbdf2cub transcript; N-terminal-truncated iRhom2) MSSMPDDVFESPPLSASYFRGIPHSASPVSPDGVQIPLKEYGRAPVPGPRRGKRIASKVKHFAFDRKKRHYGLGVVGNWLNRSYRRSISSTVQRQLESFDSHRPYFTYWLTFVHVIITLLVICTYGIAPVGFAQHVTTQLVLRNKGVYESVKYIQQENFWVGPSSIDLIHLGAKFSPCIRKDGQIEQLVLRERDLERDSGCCVQNDHSGCIQTQRKDCSETLATFVKWQDDTGPPMDKSDLGQKRTSGAVCHQDPRTCEEPASSGAHIWPDDITKWPICTEQARSNHTGFLHMDCEIKGRPCCIGTKGSCEITTREYCEFMHGYFHEEATLCSQVHCLDKVCGLLPFLNPEVPDQFYRLWLSLFLHAGVVHCLVSVVFQMTILRDLEKLAGWHRIAIIFILSGITGNLASAIFLPYRAEVGPAGSQFGLLACLFVELFQSWPLLERPWKAFLNLSAIVLFLFICGLLPWIDNIAHIFGFLSGLLLAFAFLPYITFGTSDKYRKRALILVSLLAFAGLFAALVLWLYIYPINWPWIEHLTCFPFTSRFCEKYELDQVLH |  |  | lower intracellular levels | forms physical complexes with AREG | not EGF | selectively increased secretion of AREG | no difference | greater levels of AREG in conditioned medium | selectively increased secretion of AREG and HB-EGF
3 | p.I186T: HuWt clone containing the human tylosis missense mutation RHBDF2 p.I186T (protein, left off: small tags and cut ends) MASADKNGGSVSSVSSSRLQSRKPPNLSITIPPPEKETQAPGEQDSMLPEGFQNRRLKKSQPRTWAAHTTACPPSFLPKRKNPAYLKSVSLQEPRSRWQESSEKRPGFRRQASLSQSIRKGAAQWFGVSGDWEGQRQQWQRRSLHHCSMRYGRLKASCQRDLELPSQEAPSFQGTESPKPCKMPKTVDPLARGRAFRHPEEMDRPHAPHPPLTPGVLSLTSFTSVRSGYSHLPRRKRMSVAHMSLQAAAALLKGRSVLDATGQRCRVVKRSFAFPSFLEEDVVDGADTFDSSFFSKEEMSSMPDDVFESPPLSASYFRGIPHSASPVSPDGVQIPLKEYGRAPVPGPRRGKRIASKVKHFAFDRKKRHYGLGVVGNWLNRSYRRSISSTVQRQLESFDSHRPYFTYWLTFVHVIITLLVICTYGIAPVGFAQHVTTQLVLRNKGVYESVKYIQQENFWVGPSSIDLIHLGAKFSPCIRKDGQIEQLVLRERDLERDSGCCVQNDHSGCIQTQRKDCSETLATFVKWQDDTGPPMDKSDLGQKRTSGAVCHQDPRTCEEPASSGAHIWPDDITKWPICTEQARSNHTGFLHMDCEIKGRPCCIGTKGSCEITTREYCEFMHGYFHEEATLCSQVHCLDKVCGLLPFLNPEVPDQFYRLWLSLFLHAGVVHCLVSVVFQMTILRDLEKLAGWHRIAIIFILSGITGNLASAIFLPYRAEVGPAGSQFGLLACLFVELFQSWPLLERPWKAFLNLSAIVLFLFICGLLPWIDNIAHIFGFLSGLLLAFAFLPYITFGTSDKYRKRALILVSLLAFAGLFAALVLWLYIYPINWPWIEHLTCFPFTSRFCEKYELDQVLH |  |  | lower intracellular levels | forms physical complexes with AREG |  |  |  | greater levels of AREG in conditioned medium | 
